This is an account of results in patent US20190225692A1 (JUNO THERAPEUTICS, published 2019).

The labels stand for the following.
B1: TCR 39 (codon optimized, cysteine modified version) (TCR, V domains shown)
V domain 1: GQQLNQSPQSMFIQEGEDVSMNCTSSSIFNTWLWYKQEPGEGPVLLIALYKAGELTSNGRLTAQFGITRKDSFLNISASIPSDVGIYFCAGYSSSNDYKLSFGAGTTVTVRA
V domain 2: EPEVTQTPSHQVTQMGQEVILRCVPISNHLYFYWYRQILGQKVEFLVSFYNNEISEKSEIFDDQFSVERPDGSNFTLKIRSTKLEDSAMYFCASTPRDRGKEAFFGQGTRLTVVE
B2: TCR 46 (codon optimized, cysteine modified version) (TCR, V domains shown)
V domain 1: AQSVTQLDSQVPVFEEAPVELRCNYSSSVSVYLFWYVQYPNQGLQLLLKYLSGSTLVKGINGFEAEFNKSQTSFHLRKPSVHISDTAEYFCAVSPSSGTYKYIFGTGTRLKVLA
V domain 2: GAGVSQTPSNKVTEKGKYVELRCDPISGHTALYWYRQSLGQGPEFLIYFQGTGAADDSGLPNDRFFAVRPEGSVSTLKIQRTERGDSAVYLCASSLYLGGSETQYFGPGTRLLVLE
B3: TCR 44 (codon optimized, cysteine modified version) (TCR, V domains shown)
V domain 1: GQNIDQPTEMTATEGAIVQINCTYQTSGFNGLFWYQQHAGEAPTFLSYNVLDGLEEKGRFSSFLSRSKGYSYLLLKELQMKDSASYLCAQYSGGYQKVTFGTGTKLQVIP
V domain 2: DSGVTQTPKHLITATGQRVTLRCSPRSGDLSVYWYQQSLDQGLQFLIQYYNGEERAKGNILERFSAQQFPDLHSELNLSSLELGDSALYFCASSGTPDTQYFGPGTRLTVLE
B4: TCR 45 (codon optimized, cysteine modified version) (TCR, V domains shown)
V domain 1: GQQVMQIPQYQHVQEGEDFTTYCNSSTTLSNIQWYKQRPGGHPVFLIQLVKSGEVKKQKRLTFQFGEAKKNSSLHITATQTTDVGTYFCAGSSGAGSYQLTFGKGTKLSVIP
V domain 2: GAGVSQSPSNKVTEKGKDVELRCDPISGHTALYWYRQRLGQGLEFLIYFQGNSAPDKSGLPSDRFSAERTGESVSTLTIQRTQQEDSAVYLCASSLYLGTTGELFFGEGSRLTVLE
B5: TCR 36 (codon optimized, cysteine modified version) (TCR, V domains shown)
V domain 1: RKEVEQDPGPFNVPEGATVAFNCTYSNSASQSFFWYRQDCRKEPKLLMSVYSSGNEDGRFTAQLNRASQYISLLIRDSKLSDSATYLCVVNRDNYGQNFVFGPGTRLSVLP
V domain 2: EPEVTQTPSHQVTQMGQEVILRCVPISNHLYFYWYRQILGQKVEFLVSFYNNEISEKSEIFDDQFSVERPDGSNFTLKIRSTKLEDSAMYFCAMTGRSNYEQYFGPGTRLTVTE
B6: TCR 48 (codon optimized, cysteine modified version) (TCR, V domains shown)
V domain 1: QKEVEQDPGPLSVPEGAIVSLNCTYSNSAFQYFMWYRQYSRKGPELLMYTYSSGNKEDGRFTAQVDKSSKYISLFIRDSQPSDSATYLCAMRIQGAQKLVFGQGTRLTINP
V domain 2: EPEVTQTPSHQVTQMGQEVILRCVPISNHLYFYWYRQILGQKVEFLVSFYNNEISEKSEIFDDQFSVERPDGSNFTLKIRSTKLEDSAMYFCASTGRVSYEQYFGPGTRLTVTE
B7: TCR 40 (codon optimized, cysteine modified version) (TCR, V domains shown)
V domain 1: GQQVMQIPQYQHVQEGEDFTTYCNSSTTLSNIQWYKQRPGGHPVFLIQLVKSGEVKKQKRLTFQFGEAKKNSSLHITATQTTDVGTYFCAGRNNFNKFYFGSGTKLNVKP
V domain 2: EPEVTQTPSHQVTQMGQEVILRCVPISNHLYFYWYRQILGQKVEFLVSFYNNEISEKSEIFDDQFSVERPDGSNFTLKIRSTKLEDSAMYFCAITARSSYEQYFGPGTRLTVTE
B8: TCR 47 (codon optimized, cysteine modified version) (TCR, V domains shown)
V domain 1: QKEVEQNSGPLSVPEGAIASLNCTYSDRGSQSFFWYRQYSGKSPELIMFIYSNGDKEDGRFTAQLNKASQYVSLLIRDSQPSDSATYLCAVNLLSGSARQLTFGSGTQLTVLP
V domain 2: EPEVTQTPSHQVTQMGQEVILRCVPISNHLYFYWYRQILGQKVEFLVSFYNNEISEKSEIFDDQFSVERPDGSNFTLKIRSTKLEDSAMYFCAMTGRTTYEQYFGPGTRLTVTE
B9: TCR 42 (codon optimized, cysteine modified version) (TCR, V domains shown)
V domain 1: GQQVMQIPQYQHVQEGEDFTTYCNSSTTLSNIQWYKQRPGGHPVFLIQLVKSGEVKKQKRLTFQFGEAKKNSSLHITATQTTDVGTYFCAGPDNFNKFYFGSGTKLNVKP
V domain 2: EPEVTQTPSHQVTQMGQEVILRCVPISNHLYFYWYRQILGQKVEFLVSFYNNEISEKSEIFDDQFSVERPDGSNFTLKIRSTKLEDSAMYFCAKTSRSSYEQYFGPGTRLTVTE
B10: TCR 37 (codon optimized, cysteine modified version) (TCR, V domains shown)
V domain 1: ELKVEQNPLFLSMQEGKNYTIYCNYSTTSDRLYWYRQDPGKSLESLFVLLSNGAVKQEGRLMASLDTKARLSTLHITAAVHDLSATYFCAGYSGAGSYQLTFGKGTKLSVIP
V domain 2: GAGVSQSPRYKVAKRGQDVALRCDPISGHVSLFWYQQALGQGPEFLTYFQNEAQLDKSGLPSDRFFAERPEGSVSTLKIQRTQQEDSAVYLCASSLLLGAYGYTFGSGTRLTVVE
B11: TCR 41 (codon optimized, cysteine modified version) (TCR, V domains shown)
V domain 1: RKEVEQDPGPFNVPEGATVAFNCTYSNSASQSFFWYRQDCRKEPKLLMSVYSSGNEDGRFTAQLNRASQYISLLIRDSKLSDSATYLCVVTFALTGGFKTIFGAGTRLFVKA
V domain 2: EPEVTQTPSHQVTQMGQEVILRCVPISNHLYFYWYRQILGQKVEFLVSFYNNEISEKSEIFDDQFSVERPDGSNFTLKIRSTKLEDSAMYFCASNPRDRVSYEQYFGPGTRLTVTE
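Note: cells transiently transfected with TCR plasmids, stained 48 h later with HLA-A*02:01 peptide-MHC tetramer plus anti-CD8 antibody, read by flow cytometry to assess CD8-independent tetramer binding.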

In the experiment the target is T1, HLA-A2/E7 (11-19) tetramer (human; HPV 16).
T1 construct: also called E7(11-19) peptide-MHC tetramer; E7 (11-19)-loaded tetramer
Put plainly: tetramer flow cytometry; transfected 1:1 CD4+ and CD4+/CD8+ Jurkat-derived cells. (Flow cytometry measures light scatter and fluorescence of single cells or particles in a stream.)
Protocol: For transfection, the CD4+ and CD4+/CD8+ cell mixtures were transiently transfected with TCR-encoding plasmids and 48 hours after transfection, cells were assessed by flow cytometry for (1) binding of the target peptide in the context of an MHC molecule (HLA:A02:01) by staining with an E6(29-38) peptide- or an E7(11-19) peptide-MHC tetramer reagent, and/or (2) CD8+ independent binding of the target by co-staining the tetramer-labeled cells with an anti-CD8 antibody.
For the molecule B1, the “% cells in E7 tet+/CD8+ quadrant” value worked out at 12.3%, the “% cells in E7 tet+/CD8- quadrant” value stood at 2.61%, the “% cells in E7 tet-/CD8+ quadrant” value is 37% and the “% cells in E7 tet-/CD8- quadrant” value is 48%.

Take B2: the “% cells in E7 tet+/CD8+ quadrant” value amounted to 1.27%, the “% cells in E7 tet+/CD8- quadrant” value was 1.21%, the “% cells in E7 tet-/CD8+ quadrant” value is 38.9% and the “% cells in E7 tet-/CD8- quadrant” value came out at 58.6%.

As for B3, the “% cells in E7 tet+/CD8+ quadrant” value came to 2.96%, the “% cells in E7 tet+/CD8- quadrant” value turned out to be 1.43%, the “% cells in E7 tet-/CD8+ quadrant” value is 39.9% and the “% cells in E7 tet-/CD8- quadrant” value was determined as 55.7%.

Turning to B4, the “% cells in E7 tet+/CD8+ quadrant” value came to 22.4%, the “% cells in E7 tet+/CD8- quadrant” value was 16.9%, the “% cells in E7 tet-/CD8+ quadrant” value is 19.5% and the “% cells in E7 tet-/CD8- quadrant” value came to 41.3%.

For B5, the “% cells in E7 tet+/CD8+ quadrant” value came out at 23.4%, the “% cells in E7 tet+/CD8- quadrant” value was found to be 16.7%, the “% cells in E7 tet-/CD8+ quadrant” value came to 25.4% and the “% cells in E7 tet-/CD8- quadrant” value worked out at 34.5%.

As for B6, the “% cells in E7 tet+/CD8+ quadrant” value amounted to 5.36%, the “% cells in E7 tet+/CD8- quadrant” value was determined as 1.29%, the “% cells in E7 tet-/CD8+ quadrant” value is 37% and the “% cells in E7 tet-/CD8- quadrant” value worked out at 56.4%.

As for B7, the “% cells in E7 tet+/CD8+ quadrant” value was determined as 7.84%, the “% cells in E7 tet+/CD8- quadrant” value worked out at 1.37%, the “% cells in E7 tet-/CD8+ quadrant” value was found to be 42.4% and the “% cells in E7 tet-/CD8- quadrant” value came to 48.4%.

In the case of B8, the “% cells in E7 tet+/CD8+ quadrant” value was 1.98%, the “% cells in E7 tet+/CD8- quadrant” value is 0.71%, the “% cells in E7 tet-/CD8+ quadrant” value was found to be 40.6% and the “% cells in E7 tet-/CD8- quadrant” value is 56.7%.

On to B9, for which the “% cells in E7 tet+/CD8+ quadrant” value was 1.21%, the “% cells in E7 tet+/CD8- quadrant” value is 1.65%, the “% cells in E7 tet-/CD8+ quadrant” value was determined as 39.5% and the “% cells in E7 tet-/CD8- quadrant” value amounted to 57.4%.

Consider B10, for which the “% cells in E7 tet+/CD8+ quadrant” value stood at 25.5%, the “% cells in E7 tet+/CD8- quadrant” value was 19.5%, the “% cells in E7 tet-/CD8+ quadrant” value came out at 22.7% and the “% cells in E7 tet-/CD8- quadrant” value was 32.2%.

On to B11, for which the “% cells in E7 tet+/CD8+ quadrant” value stood at 6.07%, the “% cells in E7 tet+/CD8- quadrant” value was 2.41%, the “% cells in E7 tet-/CD8+ quadrant” value was 43.6% and the “% cells in E7 tet-/CD8- quadrant” value was 47.9%.
